Reference: patent publication US7091027B1, “Transgenic amorpha-4,11-diene synthesis” (GenoClipp Biotechnology B.V., priority 1998, dated 2006)

Tested on: T1, CC(C)=CCC/C(C)=C/CC/C(C)=C/CO[P@@](=O)(O)OP(=O)(O)O
T1 construct: This enzyme preparation was used for the measurement of enzyme characteristics such as molecular weight and Km; from tissue; host or cells: young leaves of greenhouse-grown A. annua
Assay: Enzyme kinetics of Mono-Q purified amorphadiene synthase in the [3H]-FPP assay
Assay type: biochemical, A. annua
Conditions: other: 5- and 10-fold diluted Mono-Q eluted enzyme preparation, [3H]-FPP 0.25–100 μM, 30 min at 30° C.
Procedure: During enzyme isolation and preparation of the assays, all operations were carried out on ice or at 4° C. Ten grams of frozen young leaves from greenhouse-grown A. annua were ground in a pre-chilled mortar and pestle in 40 ml of pre-chilled buffer containing 25 mM MES (pH 5.5), 20% (v/v) glycerol, 25 mM sodium ascorbate, 25 mM NaHSO3, 10 mM MgCl2 and 5 mM DTT (buffer A) slurried with 1 g polyvinylpolypyrrolidone (PVPP) and a spatula tip of purified sea sand. Ten grams of polystyrene resin (Amberlite XAD-4, Serva) were added and the slurry was stirred carefully for 10 min and then filtered through cheesecloth. The filtrate was centrifuged at 20,000 g for 20 min (pellet discarded), and then at 100,000 g for 90 min. […]
The remainder of the supernatant was added to 12.5 g DEAE anion exchanger (Whatman DE-52), which had been rinsed several times with buffer A, and stirred carefully for 10 min. […] The molecular weight was determined using size-exclusion chromatography. 200 μl of the Mono-Q eluent was loaded on a Superdex 75 (H/R10/30, Pharmacia Biotech) and eluted in the same buffer as used for Mono-Q. Enzyme activities in 0.5 ml fractions were determined as described for Mono-Q, but using undiluted eluent. […] Enzyme-kinetics were determined using 5- and 10-fold diluted Mono-Q eluted enzyme preparation and [^3H]-FPP concentrations ranging from 0.25–100 μM. […]

Chain of amorphadiene synthase (Artemisia annua) (chain, as listed by the source): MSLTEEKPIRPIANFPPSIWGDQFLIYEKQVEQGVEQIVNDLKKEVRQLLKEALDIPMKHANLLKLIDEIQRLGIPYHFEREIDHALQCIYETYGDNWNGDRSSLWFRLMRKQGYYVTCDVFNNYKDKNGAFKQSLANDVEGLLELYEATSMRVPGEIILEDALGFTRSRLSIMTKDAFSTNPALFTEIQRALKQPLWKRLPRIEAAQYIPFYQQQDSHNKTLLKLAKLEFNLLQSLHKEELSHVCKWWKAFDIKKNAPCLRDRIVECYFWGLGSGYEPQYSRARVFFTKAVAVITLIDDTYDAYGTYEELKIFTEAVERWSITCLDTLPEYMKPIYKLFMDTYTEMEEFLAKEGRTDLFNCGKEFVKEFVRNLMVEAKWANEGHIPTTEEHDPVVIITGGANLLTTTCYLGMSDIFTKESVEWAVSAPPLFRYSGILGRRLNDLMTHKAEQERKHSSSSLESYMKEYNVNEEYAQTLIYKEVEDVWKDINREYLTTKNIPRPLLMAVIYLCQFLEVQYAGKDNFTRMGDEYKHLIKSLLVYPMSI

Q: With amorphadiene synthase (Artemisia annua) as the substance, how does the Km read?
A: The Km was 0.6 µM.
